These results are taken from publication PMC5676692.

The target in this assay is integrin αVβ6 heterodimer (integrin alpha-V, ITGAV, and integrin beta-6, ITGB6) (human (endogenous in HEK293T)) (UniProt P18564).
Chain of UniProt P18564 (P18564 whole entry, looked up, one chain of several): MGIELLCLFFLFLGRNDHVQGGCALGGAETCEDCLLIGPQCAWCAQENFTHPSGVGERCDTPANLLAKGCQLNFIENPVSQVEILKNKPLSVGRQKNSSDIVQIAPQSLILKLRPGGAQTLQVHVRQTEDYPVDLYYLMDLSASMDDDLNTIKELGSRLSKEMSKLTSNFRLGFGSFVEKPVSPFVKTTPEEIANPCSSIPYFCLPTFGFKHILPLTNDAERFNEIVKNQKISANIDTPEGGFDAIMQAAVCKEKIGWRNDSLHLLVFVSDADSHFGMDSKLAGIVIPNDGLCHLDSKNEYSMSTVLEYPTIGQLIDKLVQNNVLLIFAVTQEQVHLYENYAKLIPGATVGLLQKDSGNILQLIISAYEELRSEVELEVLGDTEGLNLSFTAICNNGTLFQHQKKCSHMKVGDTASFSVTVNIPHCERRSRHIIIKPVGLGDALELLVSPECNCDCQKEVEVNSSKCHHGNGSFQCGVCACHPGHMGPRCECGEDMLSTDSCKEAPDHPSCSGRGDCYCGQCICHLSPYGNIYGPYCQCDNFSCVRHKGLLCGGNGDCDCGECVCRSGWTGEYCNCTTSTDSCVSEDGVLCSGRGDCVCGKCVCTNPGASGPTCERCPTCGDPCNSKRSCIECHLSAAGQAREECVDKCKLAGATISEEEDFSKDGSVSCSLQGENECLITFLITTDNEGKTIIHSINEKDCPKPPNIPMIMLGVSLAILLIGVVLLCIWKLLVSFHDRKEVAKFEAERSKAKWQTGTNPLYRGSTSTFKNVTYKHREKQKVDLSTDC

“control AAV9 viral particle (unmodified AAV9 capsid) (from UniProt Q6JC40 1-736; Q6JC40 138-736; Q6JC40 203-736) (complex)”: the AAV9-GFP transduction (GFP+ cells after 24 h) of HEK293T, Hela or U87 cells pre-treated for 2 h with 20 µg/ml of a mouse anti-human αVβ6 functional blocking antibody, against PBS control was 50%.
